The source of these data is patent US20150024459A1.

In assay [1] the target is IGF-1R and EGP-1 together on MCF-7, DU145 or ME-180 cells (human) (UniProt P08069). The assay can be described thus: flow cytometry (FACScan), ME-180 cells; control. A general note: Flow cytometry measures light scatter and fluorescence of single cells or particles in a stream.
Assay [2] has the same target. The assay is described as follows: flow cytometry (FACScan), MCF-7 cells; control.
Assay [3] shares this target. The assay can be described thus: flow cytometry (FACScan), DU145 cells; control.
The target in assay [4] is IGF-1R on human cancer cell lines (human) (UniProt P08069). The assay is described as follows: 125I-IGF-1 binding to MCF-7L cells; antibody at 100 ng/mL.
Assay [5] shares this target. The assay is described as follows: cell-based or functional assay.
Assay [6] shares this target. The assay is described as follows: 125I-IGF-1 binding to MCF-7L cells; antibody at 1000 ng/mL.

As for human IgG (antibody), the % Positive is 1.37% in assay [1], 2.34% in assay [2] and 1.44% in assay [3]. The MFI in assay [1] stood at 1.8; in assay [2], 1.84; in assay [3], 2.21.

Turning to MAB391 (antibody), the % binding of 125I-IGF-1 in the presence of the antibody in assay [4] was 54%. Moreover, in assay [5], the maximum growth inhibition, 786-O cells, serum-free with IGF-1 100 ng/mL, MTS, antibody 8 nM was found to be 34%; the maximum growth inhibition, ACHN cells, serum-free with IGF-1 100 ng/mL, MTS, antibody 200 nM is 48%; the maximum growth inhibition, Caki-2 cells, serum-free with IGF-1 100 ng/mL, MTS, antibody 8 nM worked out at 50%. In addition, in assay [6], the % binding of 125I-IGF-1 in the presence of the antibody is 38%.
